Km, kcat and kcat/Km data for 1 protein are collected here from article PMC3430601, “Characterization of β-N-acetylhexosaminidase (LeHex20A), a member of glycoside hydrolase family 20, from Lentinula edodes (shiitake mushroom)” (AMB Express, 2012).

Substrate in data set [1]: CC(=O)N[C@H]1[C@H](Oc2ccc([N+](=O)[O-])cc2)O[C@H](CO)[C@@H](O)[C@@H]1O
The experiment in a line: purified protein. Format: biochemical, Lentinula edodes. To be noted: 20 mM sodium acetate pH 4.2, 37 °C, 15 min.

Substrate in data set [2]: CC(=O)N[C@H]1[C@H](Oc2ccc([N+](=O)[O-])cc2)O[C@H](CO)[C@H](O)[C@@H]1O
The experiment in a line: purified protein. The class given is biochemical, Lentinula edodes. The following applies: 20 mM sodium acetate pH 4.2, 37 °C, 15 min.

B1: LeHex20A (Lentinula edodes) (protein)
chain: LWPLPTDFSTGTAALTLASDFDIDISAIPNPPQDLLDAISRTKGYLQTDQLEALVVDRGASYNQSLQNASSLVSLVLSYDSGVAGEPTSISEEAIDDIDSRVEGYTLTVPEDGSAATIKANSTLGLFRGLTTFGQLWYDLNNTTYTIEAPIAITDSPVFPYRGFMLDTARNYFPVSDILRTLDAMSWVKMTTFHWHMVDSQSFPLEVPEFPELSLNGAYGPSLVYSTNDVQTIVSYANARGIDVLPEIDTPGHTAIIAQAYPEHVACPGATPWATYANEPPAGQLRFANANTTNFTASLISSVSARFPGKYFSTGGDELNTECYAIDESTQADLNTTGKTLEQALDTFTQTVQSVLEDSGKTPVVWEEMVLDFNLTLSNNTIVMVWISSADAAAVADKGFRLVQAPSDYFYLDCGAGGWVGANPSGNSWCDPFKTWQYAYSFDPVANLTDAQAKLVIGGEHLLWTEQSHASNLDSIVWPRAAASAELFWSGPGGNISEALPRLHDVAFRMTQRGVGAIALQPLWCALRPGVCDLTA
notes: native, purified from fruiting bodies; secreted mature form, 17-residue signal peptide predicted (ORF 553 aa, mature 536 aa); N-terminus LWPLPTDFSTGTAAL; 79 kDa on SDS-PAGE (58 kDa calculated, glycosylated); GH20
For B1, in the data set “purified protein [1]”, the Km is recorded as 0.34 ± 0.01 mM, the kcat was 335 ± 10 s⁻¹ and the catalytic efficiency (kcat/Km) is 983000 M⁻¹ s⁻¹. For the same protein, in “purified protein [2]”, the Km was 0.43 ± 0.03 mM, the kcat was 177 ± 8 s⁻¹ and the specificity constant (kcat/Km) was determined as 411000 M⁻¹ s⁻¹.

As usually defined, the Km is the concentration of substrate that gives half-maximal velocity. One may read the kcat as the maximal rate divided by the concentration of active sites. Broadly, the kcat/Km is the second-order rate constant that governs catalysis at low substrate concentration.
